{"source": "patent US10471162B2", "about": "“Collagen targeted imaging probes” (priority 2014, dated 2019)", "system": "pulmonary fibrosis, low dose bleomycin, vascular leak model", "conditions": "male, C57Bl/6, mouse, in vivo, iv", "procedure": "Adult male C57Bl/6 mice were administered a single intratracheal dose of low dose bleomycin at 0.1 U/kg (low dose), in a total volume of 50 μl sterile saline. FTY720 was administered intraperitoneally to the mice at 1 mg/kg three times a week. To effect treatment in the low dose bleomycin, vascular leak model, the therapeutic murine antibody 3G9 (alpha-v-beta6 blocking antibody) and 1E6 (matched isotype control antibody) were used. Antibodies were injected into mice intraperitoneally three times week at a concentration of 1 mg/kg. All administrations of FTY720 and antibodies were initiated on day 0, ˜30 minutes before bleomycin challenge and continued throughout the duration of the experiments. Animals were placed in a small-animal PET/SPECT/CT scanner (Triumph; TriFoil Imaging), equipped with inhalation anesthesia and heating pad. […] Instrument calibration was performed with phantoms containing small known amounts of radioactivity. […] Reconstructed PET/CT data were quantitatively evaluated using AMIDE software package (Loening and Gambhir, 2003). […] The radioactivity concentration within organs was obtained from mean pixel values within the VOI volume and converted to counts per milliliter per minute and then divided by the injected dose (ID) to obtain an imaging VOI-derived percentage of the injected radioactive dose per cubic centimeter of tissue (% ID/cc). […]"}
{"smiles": "CC(C)C[C@H](NC(=O)[C@@H]1CSSC[C@H](NC(=O)[C@H](Cc2c[nH]cn2)NC(=O)[C@H](Cc2c[nH]c3ccccc23)NC(=O)[C@H](CCCCNC(=O)CNC(=O)CCC(C(=O)O)N2CCN(CC(=O)O)CCN(CC(=O)O)CC2)NC(=O)CNC(=O)CCC(C(=O)O)N2CCN(CC(=O)O)CCN(CC(=O)O)CC2)C(=O)N[C@@H]([C@@H](C)O)C(=O)N[C@@H]([C@@H](C)O)C(=O)N[C@@H](CCCCNC(=O)CCC(C(=O)O)N2CCN(CC(=O)O)CCN(CC(=O)O)CC2)C(=O)N[C@@H](Cc2ccccc2)C(=O)N2CCC[C@H]2C(=O)N[C@@H](Cc2c[nH]cn2)C(=O)N[C@@H](Cc2c[nH]cn2)C(=O)N[C@@H](Cc2ccc(O)cc2)C(=O)N1)C(=O)N[C@@H](Cc1ccc(O)cc1)C(=O)N[C@@H](Cc1ccc(-c2ccccc2)cc1)C(N)=O", "note": "(single isomer, unassigned) [CBP8]", "values": [{"measurement": "mean lung PET activity", "value": "2.07 ± 0.53", "unit": "% ID/cc"}]}
